{"source": "patent US9618524B2", "about": "“Method, composition, isolation and identification of a plaque particle and related biomarker” (Plaxgen Inc., priority 2012, dated 2017)", "assay_in_all_cases": "Mass spectroscopy proteomics, semi-quantitative binding affinity of serum proteins (plaqueproteome, Table 2)", "settings_in_all_cases": "higher number = stronger affinity", "key": {"Tau plaque particles": {"test_system": "Tau plaque particles", "design": "species or system human", "method": "For Tau-74 (74-102) (Exon 3/Insert 2 domain) preparation, 1 mg of Tau-74 was suspended in 1 mL of PBS and the sample was incubated at 37° C. for 2 hrs. Similarly for preparing Tau-275 (275-305) (Repeat 2 domain) 1 mg of the peptide was suspended in 1 mL of PBS and the sample was incubated at 37° C. for 2 hrs. After incubation, all the samples were centrifuged for 5 min. at 5000 rpm to remove precipitate, if any, and the supernatant containing oligomers/aggregates were used for in vitro amyloid plaque particles formation assay. For detecting Tau plaque particles, Thioflavin S (Ex/Em=430 nm/550 nm) amyloid binding fluorescent dye (10 μg) was used in the assay.\nNext, to isolate Tau plaque particles, as performed for Abeta-42 and Abeta-28 plaque particles isolation, diluted serum samples were used for incubation separately with Tau-45, Tau-74 and Tau-275 oligomers/aggregates. Each assay was performed in 1 mL reaction (800 μL of 50% plasma or serum) and 200 μL (30 μg) of each Tau aggregates and the mixtures were incubated at 37° C. for 1 hr. To the each mixture Thioflavin S dye (120 μg) was added and the sample was incubated for additional 30 min at 37° C. After the incubation, each sample was directly used for sample acquisition using flow cytometer (FACS ARIA II, BD Biosciences, San Jose, Calif.). After initial detection of Tau plaque particles, gates were drawn in the acquisition blot to separately sort and isolate fluorescently labeled Tau plaque particles.\n(§1) For preparing trypsin digested peptide sequences, the isolated plaque particles were centrifuged at 10000 rpm for 5 min and the pellet containing plaque particles was resuspended in 100 μl PBS buffer. Stock solutions of digestion buffer (Ammonium Biocarbonate 50 mM), reducing buffer (DDT 100 mM) and alkylation buffer (lodoaceamide 100 mM) were prepared and stored at −20° C. for up to two months. For trypsin digestion, 100 μl of each plaque particles (2000 of Abeta-42, cholesterol, Tau and alpha-synuclein) were precipitated using cold acetone −80° C. by adding 4X's the volume. The samples were placed on dry ice for 10 min with intermittent vortex. Next, the samples were centrifuged at 4° C. at 10000 G for 10 min. Top layer of acetone was carefully removed from the tube with care not to disturb the plaque particles pellet. The samples were speed-vac for 10 min to ensure all acetone has been boiled away. The plaque particles pellet were reconstituted with 15 μl 8M Urea 100 mM Ammonium bicarbonate stock and 20 μl protease max solution. The protease max solution (Promega, Madison, Wis.) was prepared from stock by adding 60 μl 50 mM Ammonium bicarbonate and used for 3 solution digests (20 μl each). […] The tubes were incubated at 55° C. for 30 minutes. The tubes were then removed and brought to the room temperature followed by addition of 3.2 μl of 1M acrylamide and incubated at room temperature for 30 minutes. To the sample, 63 μL of 50 mM Ammonium bicarbonate was added for a final volume of 98 μl and 2 μl of trypsin (10 μg, Trypsin/Lys C Mix). After mixing the solution with pipet the samples were incubated at 37° C. overnight. After the overnight digest, the tryptic digest were quenched and acidified by adding 10 μl of 50% formic acid/water stock dilution. The samples were centrifuged at 10000 G for 2 minutes and purified using stage tip and used for MS/Mass analysis.\n(§2) All MS/MS samples were analyzed using Sequest (Thermo Fisher Scientific, San Jose, Calif., USA; version 1.0). Sequest was set up to search the SUMS_uniprot_Human database (35847 entries) assuming the digestion enzyme strict trypsin. Sequest was searched with a fragment ion mass tolerance of 1.00 Da and a parent ion tolerance of 20 PPM. Propionamide of cysteine was specified in Sequest as a fixed modification. Oxidation of methionine and phospho of serine, threonine and tyrosine were specified in Sequest as variable modifications."}, "[1]": {"test_system": "Low density cholesterol (Chl small) plaque particles", "design": "species or system human", "method": "(§3) The goal was to isolate plaque particles synthesized in the bio-fluids in a relatively pure form to enable their subsequent use for identification of components that contribute to the plaque formation. In order to isolate cholesterol plaque particles, the plasma or serum samples obtained from atherosclerotic subjects were first centrifuged at 5,000 rpm for 5 min and the supernatants were transferred to new centrifuge tubes. Next, the supernatants were diluted in PBS to make 50% of the serum and used for incubation with cholesterol oligomers/aggregates. Each assay was performed in 1 mL reaction (800 μL of 50% plasma or serum) and 200 μL (30 μg) of the Cholesterol aggregates and the mixtures were incubated at 37° C. for 1 hr After the incubation, the mixture was directly used for sample acquisition using flow cytometer (FACS ARIA II, BD Biosciences, San Jose, Calif.). […] In order to isolate these fractions, three sets of gates were drawn in the acquisition blot to separately sort and isolate High density or high complex cholesterol particles, Low density or low complex cholesterol particles and both High and low density cholesterol particles together.\nas §1, §2\n(§4) Scaffold (version Scaffold_4.2.1, Proteome Software Inc., Portland, Oreg.) was used to validate MS/MS based peptide and protein identifications. […] Protein probabilities were assigned by the Protein Prophet algorithm (Nesvizhskii, Al et al 2003)."}, "[2]": {"test_system": "High Density cholesterol (Chl Large) plaque particles", "design": "species or system human", "method": "as §3, §1, §2, §4"}, "[3]": {"biological_target": "T1, alpha-synuclein plaque particles (Homo sapiens, UniProt P37840)", "T1 construct": "140 amino acids polypeptide", "method": "To prepare oligomers/aggregates of human alpha-synuclein (140 amino acids polypeptide), 1 mg of the recombinant alpha-synuclein protein was suspended in 1 mL of PBS and the sample was incubated at 37° C. for 2 hrs. After incubation, all the samples were centrifuged for 5 min. at 5000 rpm to remove precipitate, if any, and the supernatant containing oligomers/aggregates were used in vitro plaque particles formation assay. For detecting alpha-synuclein plaque particles Thioflavin S (Ex/Em=430 nm/550 nm) amyloid binding fluorescent dye (10 μg) was used.\nSimilarly, to isolate alpha-synuclein plaque particles, diluted plasma or serum samples obtained from AD subjects were used for incubation with alpha-synuclein plaque oligomers/aggregates. Each assay was performed in 1 mL reaction (800 μL of 50% plasma or serum) and 200 μL (30 μg) of the alpha-synuclein aggregates and the mixtures were incubated at 37° C. for 1 hr. To the mixture Thioflavin S dye (120 μg) was added and the sample was incubated for additional 30 min at 37° C. After the incubation, the mixture was directly used for sample acquisition using flow cytometer (FACS ARIA II, BD Biosciences, San Jose, Calif.). After initial detection of alpha-synuclein plaque particles, gates were drawn in the acquisition blot to separately sort and isolate fluorescently labeled alpha-synuclein particles.\nas §1, §2\nScaffold (version Scaffold_4.2.1, Proteome Software Inc., Portland, Oreg.) was used to validate MS/MS based peptide and protein identifications."}, "[4]": {"biological_target": "T2, Abeta-42 plaque particles (Homo sapiens, UniProt P05067)", "T2 construct": "Abeta 1-42", "method": "Next to isolate serum derived Abeta-42 plaque particles, the plasma or serum samples obtained from AD subjects were first centrifuged at 5,000 rpm for 5 min and the supernatants were transferred to new centrifuge tubes. Next, the supernatants were diluted in PBS to make 50% of the serum and plasma samples and used for incubation with Abeta-42 plaque oligomers/aggregates. Each assay was performed in 1 mL reaction (800 μL of 50% plasma or serum) and 200 μL (30 μg) of the Abeta-42 aggregates and the mixtures were incubated at 37° C. for 1 hr. To the mixture Thioflavin S dye (120 μg) was added and the sample was incubated for additional 30 min at 37° C. After the incubation, the mixture was directly used for sample acquisition using flow cytometer (FACS ARIA II, BD Biosciences, San Jose, Calif.). After initial detection of Abeta-42 plaque particles in the acquisition blot, gates were drawn in fluorescent dot blot to separately sort and isolate fluorescently labeled Abeta-42 particles.\nas §1, §2\nas §4, with “2003). […] Proteins sharing significant peptide evidence were grouped into clusters. Proteins were annotated with GO terms from NCBI (downloaded Jan. 17, 2014).” for “2003).”"}}}
{"molecule": "C4b-binding protein alpha chain (protein) NCGPPPTLSFAAPMDITLTETRFKTGTTLKYTCLPGYVRSHSTQTLTCNSDGEWVYNTFCIYKRCRHPGELRNGQVEIKTDLSFGSQIEFSCSEGFFLIGSTTSRCEVQDRGVGWSHPLPQCEIVKCKPPPDIRNGRHSGEENFYAYGFSVTYSCDPRFSLLGHASISCTVENETIGVWRPSPPTCEKITCRKPDVSHGEMVSGFGPIYNYKDTIVFKCQKGFVLRGSSVIHCDADSKWNPSPPACEPNSCINLPDIPHASWETYPRPTKEDVYVVGTVLRYRCHPGYKPTTDEPTTVICQKNLRWTPYQGCEALCCPEPKLNNGEITQHRKSRPANHCVYFYGDEISFSCHETSRFSAICQGDGTWSPRTPSCGDICNFPPKIAHGHYKQSSSYSFFKEEIIYECDKGYILVGQAKLSCSYSHWSAPAPQCKALCRKPELVNGRLSVDKDQYVEPENVTIQCDSGYGVVGPQSITCSGNRTWYPEVPKCEWETPEGCEQVLTGKRLMQCLPNPEDVKMALEVYKLSLEIEQLELQRDSARQSTLDKEL", "values": [{"measurement": "Semi-quantitative analysis of proteins binding to different plaque particles: Tau", "setting": "Tau plaque particles", "value": 1}, {"measurement": "Semi-quantitative analysis of proteins binding to different plaque particles: Chl small", "setting": "[1]", "value": 8}, {"measurement": "Semi-quantitative analysis of proteins binding to different plaque particles: Chl Large", "setting": "[2]", "value": 8}, {"measurement": "Semi-quantitative analysis of proteins binding to different plaque particles: Synuclein", "setting": "[3]", "value": 7}, {"measurement": "Semi-quantitative analysis of proteins binding to different plaque particles: Abeta-42", "setting": "[4]", "value": 0}]}
{"molecule": "Angiotensinogen (protein) DRVYIHPFHLVIHNESTCEQLAKANAGKPKDPTFIPAPIQAKTSPVDEKALQDQLVLVAAKLDTEDKLRAAMVGMLANFLGFRIYGMHSELWGVVHGATVLSPTAVFGTLASLYLGALDHTADRLQAILGVPWKDKNCTSRLDAHKVLSALQAVQGLLVAQGRADSQAQLLLSTVVGVFTAPGLHLKQPFVQGLALYTPVVLPRSLDFTELDVAAEKIDRFMQAVTGWKTGCSLMGASVDSTLAFNTYVHFQGKMKGFSLLAEPQEFWVDNSTSVSVPMLSGMGTFQHWSDIQDNFSVTQVPFTESACLLLIQPHYASDLDKVEGLTFQQNSLNWMKKLSPRTIHLTMPQLVLQGSYDLQDLLAQAELPAILHTELNLQKLSNDRIRVGEVLNSIFFELEADEREPTESTQQLNKPEVLEVTLNRPFLFAVYDQSATALHFLGRVANPLSTA", "values": [{"measurement": "Semi-quantitative analysis of proteins binding to different plaque particles: Tau", "setting": "Tau plaque particles", "value": 15}, {"measurement": "Semi-quantitative analysis of proteins binding to different plaque particles: Chl small", "setting": "[1]", "value": 9}, {"measurement": "Semi-quantitative analysis of proteins binding to different plaque particles: Chl Large", "setting": "[2]", "value": 10}, {"measurement": "Semi-quantitative analysis of proteins binding to different plaque particles: Synuclein", "setting": "[3]", "value": 7}, {"measurement": "Semi-quantitative analysis of proteins binding to different plaque particles: Abeta-42", "setting": "[4]", "value": 14}]}
{"molecule": "CD5 antigen-like (protein) SPSGVRLVGGLHRCEGRVEVEQKGQWGTVCDDGWDIKDVAVLCRELGCGAASGTPSGILYEPPAEKEQKVLIQSVSCTGTEDTLAQCEQEEVYDCSHDEDAGASCENPESSFSPVPEGVRLADGPGHCKGRVEVKHQNQWYTVCQTGWSLRAAKVVCRQLGCGRAVLTQKRCNKHAYGRKPIWLSQMSCSGREATLQDCPSGPWGKNTCNHDEDTWVECEDPFDLRLVGGDNLCSGRLEVLHKGVWGSVCDDNWGEKEDQVVCKQLGCGKSLSPSFRDRKCYGPGVGRIWLDNVRCSGEEQSLEQCQHRFWGFHDCTHQEDVAVICSG", "values": [{"measurement": "Semi-quantitative analysis of proteins binding to different plaque particles: Tau", "setting": "Tau plaque particles", "value": 3}, {"measurement": "Semi-quantitative analysis of proteins binding to different plaque particles: Chl small", "setting": "[1]", "value": 7}, {"measurement": "Semi-quantitative analysis of proteins binding to different plaque particles: Chl Large", "setting": "[2]", "value": 6}, {"measurement": "Semi-quantitative analysis of proteins binding to different plaque particles: Synuclein", "setting": "[3]", "value": 6}, {"measurement": "Semi-quantitative analysis of proteins binding to different plaque particles: Abeta-42", "setting": "[4]", "value": 4}]}
{"molecule": "Serum paraoxonase/arylesterase (protein) AKLIALTLLGMGLALFRNHQSSYQTRLNALREVQPVELPNCNLVKGIETGSEDLEILPNGLAFISSGLKYPGIKSFNPNSPGKILLMDLNEEDPTVLELGITGSKFDVSSFNPHGISTFTDEDNAMYLLVVNHPDAKSTVELFKFQEEEKSLLHLKTIRHKLLPNLNDIVAVGPEHFYGTNDHYFLDPYLQSWEMYLGLAWSYVVYYSPSEVRVVAEGFDFANGINISPDGKYVYIAELLAHKIHVYEKHANWTLTPLKSLDFNTLVDNISVDPETGDLWVGCHPNGMKIFFYDSENPPASEVLRIQNILTEEPKVTQVYAENGTVLQGSTVASVYKGKLLIGTVFHKALYCEL", "values": [{"measurement": "Semi-quantitative analysis of proteins binding to different plaque particles: Tau", "setting": "Tau plaque particles", "value": 3}, {"measurement": "Semi-quantitative analysis of proteins binding to different plaque particles: Chl small", "setting": "[1]", "value": 6}, {"measurement": "Semi-quantitative analysis of proteins binding to different plaque particles: Chl Large", "setting": "[2]", "value": 5}, {"measurement": "Semi-quantitative analysis of proteins binding to different plaque particles: Synuclein", "setting": "[3]", "value": 7}, {"measurement": "Semi-quantitative analysis of proteins binding to different plaque particles: Abeta-42", "setting": "[4]", "value": 2}]}
